Reference: US12276665B2, “Methods for screening and identifying agents that inhibit or modulate the nuclear egress complex of herpesviruses” (priority 2018, dated 2025)
Non-standard residues stand in square brackets, D forms with d. Residues, ends and D or L forms follow the SMILES beside them. *: point of attachment. Biotin = O=C1N[C@H]2[C@H](CS[C@H]2CCCCC(=O)*)N1; AEEA = NCCOCCOCC(=O)O

T1: EBV BFLF2 (Epstein-Barr virus, UniProt P0CK47)
T1 construct: expressed in transfected cells; host or cells: 293T
T1 sequence (P0CK47 whole entry, looked up): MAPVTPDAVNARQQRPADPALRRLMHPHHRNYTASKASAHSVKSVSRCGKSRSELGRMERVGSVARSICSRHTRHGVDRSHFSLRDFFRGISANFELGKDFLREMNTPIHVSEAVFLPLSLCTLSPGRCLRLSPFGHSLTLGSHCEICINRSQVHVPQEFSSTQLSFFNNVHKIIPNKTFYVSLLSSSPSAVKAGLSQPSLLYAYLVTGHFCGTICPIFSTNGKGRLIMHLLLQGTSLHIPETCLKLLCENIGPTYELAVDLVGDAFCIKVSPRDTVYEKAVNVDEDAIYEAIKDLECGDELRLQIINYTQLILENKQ

B1: BFRF1: EBV groove protein of the core NEC; His-tagged in ELISA, HA-tagged in CoIP (protein)
chain: MASPEERLLDELNNVIVSFLCDSGSLEVERCSGAHVFSRGSSQPLCTVKLRHGQIYHLEFVYKFLAFKLKNCNYPSSPVFVISNNGLATTLRCFLHEPSGLRSGQSGPCLGLSTDVDLPKNSIIMLGQDDFIKFKSPLVFPAELDLLKSMVVCRAYITEHRTTMQFLVFQAANAQKASRVMDMISDMSQQLSRSGQVEDTGARVTGGGGPRPGVTHSGCLGDSHVRGRGGWDLDNFSEAETEDEASYAPWRDKDSWSESEAAPWKKELVRHPIRRHRTRETRRMRGSHSRVEHVPPETRETVVGGAWRYSWRATPYLARVLAVTAVALLLMFLRWT
modifications: Human herpesvirus 4
notes: EBV groove protein of the core NEC; His-tagged in ELISA, HA-tagged in CoIP
B2: MCMV pM50: MCMV core NEC protein, HA-tagged, transiently expressed (protein)
chain: MEIDKNVGADLISNTRRILRLDENELRITDTALICKNPNYSLCDAMLTTDIVYPVEYLLSYWECRSGRTACFVFKNTGCRVSLSCYIGFPERLKDLKRVCDFNFLSVNEALVVTLADIERIKPCDKGVLTNCVVRKSNSGMSYNIEVVAFGPDNEAEYQALLRDIYARRMTSVPTDCGSLICRRARCLAAAPPRRPPPPPPPGQRWGSLRKHGPVLTRRYAGGGGAAKNQPAAASPTSTSTSSPAAPSRDQDQTQRPPPAGDTNVTAAETTYSERTISFLTRHANAIHCALILAAAIALVLLWLLYWHAARSAGHP
modifications: Mouse cytomegalovirus 1
notes: MCMV core NEC protein, HA-tagged, transiently expressed

Legend:
[1] = biological target: pUL50-pUL53 interaction (HCMV NEC) (Human cytomegalovirus, UniProt P16791); experiment: competitive binding assay
Description: These experiments were designed to address the peptide-protein interactions for each virus, as well as the ability of the hook peptides and proteins to cross-interact with the groove proteins of the respective other virus.
After blocking with BSA plates were incubated with 50 μL/well of inhibitor solutions at different concentration ranges, and 50 μL/well of His-tagged pUL50 (0.16 μg/mL) and BFRF1 (5 μg/mL), respectively. His-tagged pUL50 and BFRF1 were detected and plates developed as described above. IC50-values were determined using the regression wizard of GraphPad Prism. All data points present means of duplicates. Inhibition was calculated according to the following formula: % Inhibition=[1−(Apeptide−Ablank1)/(A100%−Ablank2)]×100, in which “100%” is a sample without inhibitor, “blank1” is a sample without coated hook protein and “blank2” is a sample without coated hook protein and without inhibitor.

[2] = biological target: pUL53 (Human cytomegalovirus, UniProt P16794); details: ratio of EC50 values
Description: Plates were washed four times with 0.01% Tween 20 in 0.1 M phosphate buffer pH 7.2 (300 μL/well) after each incubation step. […] All data points present means of duplicates.

[3] = biological target: T1, EBV BFLF2; experiment: coimmunoprecipitation (CoIP), proteins from transient transfection; assay type: binding; details: 293T cells
From the text: (§1) Two or three dpt cells were harvested.

[4] = system: MCMV pM53; experiment: as above; assay type: binding; details: 293T cells
From the text: as §1

[5] = biological target: T2, VZV Orf27 (Varicella-zoster virus, UniProt P09283); experiment: as above; assay type: binding; details: 293T cells
T2 construct: expressed in transfected cells; host or cells: 293T
From the text: as §1

[6] = biological target: HCMV pUL53 (Human cytomegalovirus, UniProt P16794); details: 293T cells, transient transfection
Description: CoIP analyses were performed to investigate specific protein-protein interactions (Bannister and Kouzarides, 1996). To this end, 293T cells (5×10^6) were transfected with the plasmids coding for the proteins of interest. One day before CoIP, 50 mg/ml protein A sepharose or 25 μl of dynabeads Protein A were incubated with the appropriate antibody in 500 μl CoIP buffer at 4° C. overnight. Two or three dpt cells were harvested. Lysis was performed using 500 μl CoIP buffer containing protease inhibitors and PMSF on ice for 20 min, sonificated (20 impulses, 80%) and centrifuged (14000 rpm, 10 min, 4° C.). For expression controls 50 μl aliquots of each supernatant were taken and boiled in 50 μl 2× boiling mix for 10 min at 95° C. The antibody-loaded dynabeads or sepharose beads (washed three times with CoIP buffer) were incubated with the lysates for 1.5 h at 4° C. Thereafter, samples were washed with CoIP buffer five times, resuspended in 30 μl 2× boiling mix and boiled 10 min at 95° C. Separation and analyzation of protein complexes were performed using SDS-PAGE and Wb.
Protein samples obtained from CoIP or cell lysates were separated by SDS-PAGE and transferred to a nitrocellulose membrane by electroblotting (200-300 mA for 80 min). […] Finally, the membranes were washed again three times with PBSo over 30 min, shortly incubated within a freshly prepared ECL solution (10 ml ECL solution A, 100 μl ECL solution B and 3.1 μl H2O2) and the proteins were detected by the use of the FUJIFILM Luminescent Image Analyzer LAS-1000 (FUJIFILM Europe GmbH, Düsseldorf, Germany). […]
At three dpt, cells were lysed and HA-tagged proteins were precipitated using pAb-HA or a rabbit antibody Fc fragment as specificity control. […] Lysate controls taken prior to the IP and CoIP samples were subjected to standard Wb analysis and protein expression was analyzed using tag- or protein-specific antibodies.

Molecule	IC50 [1] [nM]	fold lower inhibitory activity than the HCMV counterpart (hook protein or hook peptide) ([1]; ratio of IC50 values)	fold stronger interaction than the BFRF1-BFLF2 interaction of EBV [2]	CoIP interaction with EBV BFLF2 [3]	CoIP interaction with MCMVpM53 [4]	CoIP interaction with VZV Orf27 [5]	CoIP interaction with HCMV pUL53 [6]
CC[C@H](C)[C@H](NC(=O)CNC(=O)[C@H](CCCNC(=N)N)NC(=O)[C@H](Cc1ccccc1)NC(=O)[C@H](Cc1ccccc1)NC(=O)[C@H](CC(=O)O)NC(=O)[C@H](CCCNC(=N)N)NC(=O)[C@H](CC(C)C)NC(=O)[C@H](CO)NC(=O)[C@H](Cc1ccccc1)NC(=O)[C@H](Cc1c[nH]cn1)NC(=O)[C@H](CO)NC(C)=O)C(=O)N[C@@H](CO)C(=O)N[C@@H](C)C(=O)N[C@@H](CC(N)=O)C(=O)N[C@@H](Cc1ccccc1)C(=O)N[C@@H](CCC(=O)O)C(=O)N[C@@H](CC(C)C)C(=O)NCC(=O)N[C@@H](CCCCN)C(=O)N[C@@H](CC(=O)O)C(=O)N[C@@H](Cc1ccccc1)C(=O)N[C@@H](CC(C)C)C(=O)N[C@@H](CCCNC(=N)N)C(=O)N[C@@H](CCC(=O)O)C(=O)N[C@@H](CCSC)C(=O)N[C@@H](CC(N)=O)C(=O)N[C@H](C(=O)N1CCC[C@H]1C(=O)NCCOCCOCC(=O)N[C@@H](CCCCNC(=O)CCCC[C@@H]1SC[C@@H]2NC(=O)N[C@@H]21)C(N)=O)[C@@H](C)O [EBV hook peptide] (Ac-SHFSLRDFFRGISANFELGKDFLREMNTP[AEEA]K(Biotin)-NH2)	2600	approximately 22 fold					
CC[C@H](C)[C@H](NC(=O)[C@H](C)NC(=O)[C@H](CCSC)NC(=O)[C@H](CCCCN)NC(=O)[C@H](CCSC)NC(=O)[C@H](CCSC)NC(=O)[C@H](CC(N)=O)NC(=O)[C@H](CC(C)C)NC(=O)[C@H](Cc1ccc(O)cc1)NC(=O)[C@H](CCCCN)NC(=O)[C@H](CC(C)C)NC(=O)[C@H](CCC(=O)O)NC(=O)[C@H](CC(C)C)NC(=O)[C@H](CCC(=O)O)NC(=O)[C@@H]1CCCN1C(=O)[C@H](Cc1c[nH]cn1)NC(=O)[C@H](CCC(=O)O)NC(=O)[C@H](CCCNC(=N)N)NC(=O)[C@H](Cc1ccccc1)NC(=O)[C@@H](NC(=O)[C@H](CC(=O)O)NC(=O)[C@H](Cc1c[nH]cn1)NC(=O)[C@H](CC(C)C)NC(=O)[C@H](CC(=O)O)NC(=O)[C@H](Cc1c[nH]cn1)NC(=O)[C@H](CC(C)C)NC(=O)[C@@H](NC(=O)[C@H](CC(C)C)NC(C)=O)[C@@H](C)O)[C@@H](C)CC)C(=O)N[C@H](C(=O)NCCOCCOCC(=O)N[C@@H](CCCCNC(=O)CCCC[C@@H]1SC[C@@H]2NC(=O)N[C@@H]21)C(N)=O)[C@@H](C)O [HCMV hook peptide]	114						
pUL50: HCMV groove protein of the core NEC; His-tagged in ELISA, HA-tagged in CoIP			approximately 20 fold	−	+	−	+
B1				+			−
B2				−	+		+
